Among the data in patent publication US20130189255A1, “FUSIONS AND CONJUGATES OF INSULINOTROPIC AGENTS” (GLAXO GROUP LIMITED, priority 2008, published 2013) are GLP-1R BA (10 uM albumin) EC50 (pM) n = 2 (CRE-luciferase reporter in CHO 6CRE GLP1R cells) and GLP-1R BA EC50 (pM) n = 3 (CRE-luciferase reporter in CHO 6CRE GLP1R cells) values, retold here.

The test concerns the target human GLP-1 receptor (human) (UniProt P43220). As to the kind of experiment: cell-based or functional assay.

Sequence of human GLP-1 receptor (human) (P43220 24-463): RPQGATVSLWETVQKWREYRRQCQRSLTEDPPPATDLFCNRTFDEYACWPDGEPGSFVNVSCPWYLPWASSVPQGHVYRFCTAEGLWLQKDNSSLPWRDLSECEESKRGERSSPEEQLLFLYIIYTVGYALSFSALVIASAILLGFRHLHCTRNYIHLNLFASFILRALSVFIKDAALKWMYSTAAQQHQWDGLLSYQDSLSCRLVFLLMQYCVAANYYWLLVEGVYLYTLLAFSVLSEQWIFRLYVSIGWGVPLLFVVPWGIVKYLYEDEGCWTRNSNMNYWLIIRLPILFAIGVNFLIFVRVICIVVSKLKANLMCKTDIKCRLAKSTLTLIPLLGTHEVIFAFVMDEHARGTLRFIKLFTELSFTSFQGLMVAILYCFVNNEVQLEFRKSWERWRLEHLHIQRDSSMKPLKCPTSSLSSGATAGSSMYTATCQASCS

Consider “GLP-1 7-36 (from UniProt P01275 21-180) (peptide)”, for which the GLP-1R BA (10 uM albumin) EC50 (pM) n = 2 (CRE-luciferase reporter in CHO 6CRE GLP1R cells) was determined as 19 pM and the GLP-1R BA EC50 (pM) n = 3 (CRE-luciferase reporter in CHO 6CRE GLP1R cells) is 21 pM.
